From the FLAb antibody collection come the findings set out here.

The chains are these.
B1: unnamed (protein)
chain 1: EVQLLESGGGLVQPGGSLRLSCAASGFTFSSYAMNWVRQAPGKGLEWVSAITMSGITAYYTDDVKGRFTISRDNSKNTLYLQMNSLRAEDTAVYYCAKEEFLPGTHYYYGMDVWGQGTTVTVSS
chain 2: AIQMTQSPSSLSASVGDRVTITCRASQGIRNDLGWYQQKPGKAPKLLIYSASTLQSGVPSRFSGSGSGTDFTLTISSLQPEDFATYCLQDYNYPWTFGQGTKVEIK
B2: unnamed (protein)
chain 1: QVQLQESGPGLVKPSQTLSLTCSFSGFSLSTSGMGVGWIRQPSGKGLEWLAHIWWDGDESYNPSLKSRLTISKDTSKNQVSLKITSVTAADTAVYFCARNRYDPPWFVDWGQGTLVTVSS
chain 2: DIQMTQSTSSLSASVGDRVTITCRASQDISNYLSWYQQKPGKAVKLLIYYTSKLHSGVPSRFSGSGSGTDYTLTISSLQQEDFATYFCLQGKMLPWTFGQGTKLEIK
B3: unnamed (protein)
chain 1: QAYLQQSGAELVRPGASVKMSCKASGYTFTSYNMHWVKQTPRQGLEWIGAIYPGNGDTSYNQKFKGKATLTVDKSSSTAYMQLSSLTSEDSAVYFCARVVYYSNSYWYFDVWGTGTTVTVSA
chain 2: QIVLSQSPAILSASPGEKVTMTCRASSSVSYMHWYQQKPGSSPKPWIYAPSNLASGVPARFSGSGSGTSYSLTISRVEAEDAATYYCQQWSFNPPTFGAGTKLELK
B4: unnamed (protein)
chain 1: EVQLVQSGAEVKKPGESLKISCKGSGYSFSNYWIGWVRQMPGKGLEWMGIIDPSNSYTRYSPSFQGQVTISADKSISTAYLQWSSLKASDTAMYYCARWYYKPFDVWGQGTLVTVSS
chain 2: QSVLTQPPSVSGAPGQRVTISCTGSSSNIGSGYDVHWYQQLPGTAPKLLIYGNSKRPSGVPDRFSGSKSGTSASLAITGLQSEDEADYYCASWTDGLSLVVFGGGTKLTVL
B5: unnamed (protein)
chain 1: QVQLQQSGPEVVKPGASVKMSCKASGYTFTSYVIHWVRQKPGQGLDWIGYINPYNDGTDYDEKFKGKATLTSDTSTSTAYMELSSLRSEDTAVYYCAREKDNYATGAWFAYWGQGTLVTVSS
chain 2: DIVMTQSPDSLAVSLGERVTMNCKSSQSLLYSTNQKNYLAWYQQKPGQSPKLLIYWASTRESGVPDRFSGSGSGTDFTLTISSVQAEDVAVYYCQQYYSYRTFGGGTKLEIK
B6: unnamed (protein)
chain 1: EVHLVESGGALVKPGGSLRLSCAASGFSFSKYGMSWVRQAPGKGLEWVATISSSGSRTYYPDSVKGRFTISRDNAKNTLYLQMNSLRAEDTAMYYCSISWDGAMDYWGQGTTVTVSS
chain 2: DVVMTQSPLSLPVTLGQPASISCKSSQSIVHSNGNTYLEWYLQKPGQSPQLLVYKVSNRFSGVPDRFSGSGSGTDFTLKISRVEAEDVGTYYCFQGSLVPWAFGGGTKVEIK

The nature of the series: patients with anti-drug antibodies; higher = more immunogenic.
As to B1, the “patients with anti-drug antibodies” value came to 2.5%. The value for B2 was 37%; that for B3 was 1.9%. The value for B4 was 6%; that for B5 was 15%.

With B6, the “patients with anti-drug antibodies” value came to 6.2%.
